± gives the standard deviation of the averaged measurements.
What was measured:
[1] = test system: MCF7; assay: percentage of EdU-negative (G0-arrested) nuclei per well, 72 h; higher = more G0 arrest; conditions: reference: sequence is the full UniProt precursor, the tested protein was the secreted form or ectodomain
[2] = test system: hTERT-HMEC; assay: as above; conditions: reference: sequence is the full UniProt precursor, the tested protein was the secreted form or ectodomain
[3] = protein concentration 0.02075 µM
[4] = protein concentration 0.2075 µM
[5] = protein concentration 0.0225 µM
[6] = protein concentration 0.0357143 µM
[7] = protein concentration 0.357143 µM
[8] = protein concentration 0.016015 µM
[9] = protein concentration 0.16015 µM
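Note: secreted proteins added to cultured cells, EdU pulse at the end, nuclei found by Hoechst imaging, EdU status from nuclear versus surrounding ring intensity ratio, PBS as neutral control.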

Row | Sequence | percentage of EdU-negative [1, 5] | percentage of EdU-negative ([1]; protein concentration 0.225 µM) | percentage of EdU-negative [2, 5] | percentage of EdU-negative ([2]; protein concentration 0.225 µM) | other results
1 | MAFVCLAIGCLYTFLISTTFGCTSSSDTEIKVNPPQDFEIVDPGYLGYLYLQWQPPLSLDHFKECTVEYELKYRNIGSETWKTIITKNLHYKDGFDLNKGIEAKIHTLLPWQCTNGSEVQSSWAETTYWISPQGIPETKVQDMDCVYYNWQYLLCSWKPGIGVLLDTNYNLFYWYEGLDHALQCVDYIKADGQNIGCRFPYLEASDYKDFYICVNGSSENKPIRSSYFTFQLQNIVKPLPPVYLTFTRESSCEIKLKWSIPLGPIPARCFDYEIEIREDDTTLVTATVENETYTLKTTNETRQLCFVVRSKVNIYCSDDGIWSEWSDKQCWEGEDLSKKTLLRFWLPFGFILILVIFVTGLLLRKPNTYPKMIPEFFCDT | – | – | – | – | percentage of EdU-negative [1, 3]: 26.8 ± 0.36%; percentage of EdU-negative [1, 4]: 29.3 ± 0.53%; percentage of EdU-negative [2, 3]: 4.91 ± 0.34%; percentage of EdU-negative [2, 4]: 9.86 ± 0.6%
2 | MVNLAAMVWRRLLRKRWVLALVFGLSLVYFLSSTFKQEERAVRDRNLLQVHDHNQPIPWKVQFNLGNSSRPSNQCRNSIQGKHLITDELGYVCERKDLLVNGCCNVNVPSTKQYCCDGCWPNGCCSAYEYCVSCCLQPNKQLLLERFLNRAAVAFQNLFMAVEDHFELCLAKCRTSSQSVQHENTYRDPIAKYCYGESPPELFPA [Q9H741] | 26.4 ± 1.1% | 27 ± 2.9% | 5.34 ± 0.37% | 7.52 ± 0.6% | –
3 | MKLPLLLALLFGAVSALHLRSETSTFETPLGAKTLPEDEETPEQEMEETPCRELEEEEEWGSGSEDASKKDGAVESISVPDMVDKNLTCPEEEDTVKVVGIPGCQTCRYLLVRSLQTFSQAWFTCRRCYRGNLVSIHNFNINYRIQCSVSALNQGQVWIGGRITGSGRCRRFQWVDGSRWNFAYWAAHQPWSRGGHCVALCTRGGHWRRAHCLRRLPFICSY | 26.5 ± 0.76% | 29 ± 0.95% | 5.28 ± 0.63% | 4.45 ± 0.14% | –
4 | MERLVIRMPFSHLSTYSLVWVMAAVVLCTAQVQVVTQDEREQLYTPASLKCSLQNAQEALIVTWQKKKAVSPENMVTFSENHGVVIQPAYKDKINITQLGLQNSTITFWNITLEDEGCYMCLFNTFGFGKISGTACLTVYVQPIVSLHYKFSEDHLNITCSATARPAPMVFWKVPRSGIENSTVTLSHPNGTTSVTSILHIKDPKNQVGKEVICQVLHLGTVTDFKQTVNKGYWFSVPLLLSIVSLVILLVLISILLYWKRHRNQDRGELSQGVQKMT | – | – | – | – | percentage of EdU-negative [1, 6]: 23.6 ± 3.9%; percentage of EdU-negative [1, 7]: 23.5 ± 1%; percentage of EdU-negative [2, 6]: 5.34 ± 1.2%; percentage of EdU-negative [2, 7]: 5.8 ± 1%
5 | MASLRVERAGGPRLPRTRVGRPAALRLLLLLGAVLNPHEALAQPLPTTGTPGSEGGTVKNYETAVQFCWNHYKDQMDPIEKDWCDWAMISRPYSTLRDCLEHFAELFDLGFPNPLAERIIFETHQIHFANCSLVQPTFSDPPEDVLLAMIIAPICLIPFLITLVVWRSKDSEAQA | 26.4 ± 3.1% | 23.7 ± 0.28% | 4.96 ± 0.83% | 5.12 ± 0.077% | –
6 | MKVLLRLICFIALLISSLEADKCKEREEKIILVSSANEIDVRPCPLNPNEHKGTITWYKDDSKTPVSTEQASRIHQHKEKLWFVPAKVEDSGHYYCVVRNSSYCLRIKISAKFVENEPNLCYNAQAIFKQKLPVAGDGGLVCPYMEFFKNENNELPKLQWYKDCKPLLLDNIHFSGVKDRLIVMNVAEKHRGNYTCHASYTYLGKQYPITRVIEFITLEENKPTRPVIVSPANETMEVDLGSQIQLICNVTGQLSDIAYWKWNGSVIDEDDPVLGEDYYSVENPANKRRSTLITVLNISEIESRFYKHPFTCFAKNTHGIDAAYIQLIYPVTNFQKHMIGICVTLTVIIVCSVFIYKIFKIDIVLWYRDSCYDFLPIKASDGKTYDAYILYPKTVGEGSTSDCDIFVFKVLPEVLEKQCGYKLFIYGRDDYVGEDIVEVINENVKKSRRLIIILVRETSGFSWLGGSSEEQIAMYNALVQDGIKVVLLELEKIQDYEKMPESIKFIKQKHGAIRWSGDFTQGPQSAKTRFWKNVRYHMPVQRRSPSSKHQLLSPATKEKLQREAHVPLG | – | – | – | – | percentage of EdU-negative [1, 8]: 25.8 ± 1.6%; percentage of EdU-negative [1, 9]: 26.2 ± 0.51%; percentage of EdU-negative [2, 8]: 4.76 ± 0.26%; percentage of EdU-negative [2, 9]: 5.92 ± 0.43%
